Measurements from patent publication US12611443B2, “Methods and compositions related to therapeutic peptides for cancer therapy” (THE UNIVERSITY OF CHICAGO, priority 2018, dated 2026).
“Also recorded” adds a separate entry of the source.

What was measured:
MDA-MB-231 tumors = test: In vivo testing of Tet-on C1-2 transduced MDA-MB-231 tumors; parameters: species or system nude mouse
Method: FIG. 7 In vivo testing MDA-MB-231 tumor regression post C1-2 induction. (A) Tumor weight. (B) Tumor cells (millions) count (post-ficoll gradient). (C) Percent immune cells in tumors (mouse CD45+) measurement by flow cytometry.
In Vivo testing. Mammary glands of a nude mouse model were injected with 2 million Tet-on C1-2 transduced MDA-MB-231 cells. Once tumors reach approximately 80 to 100 mm3 mice are feed either a doxycycline diet or are injected intraperitoneally with doxycycline (50 mg/ml) every 5 days to induce Tet-on system. Tumor growth is monitored. Tumors are isolated and digested on day 21 post doxycycline treatment and tumor weights are measured, tumor cell numbers are counted, and CD45+ cells are measured by flow cytometry.

MCF10A cells = test: Doxycycline-inducible Tet-on expression of C1-2 in MCF10A cells; assay type: cell-based; conditions: doxycycline 2 μg/mL
Method: (§1) FIG. 4 Inducible Expression System. Scheme of doxycycline inducible Tet-on system to express either C (aa. 157-335) or C1-2 (aa. 221-331). C1-2 (DD containing fragment) upon addition of doxycycline (both in vitro and in vivo).
(§2) FIG. 5 Confirmation of C1-2 expression and cancer cell selective killing. (A) Tet-on C or C1-2 transduced MDA-MB-231 cells were treated with 2 μg/mL doxycycline (2 μg/mL) for 24 h. Cell lysates were collected for western blot. Confirming the expression of C or C1-2 expression. (B) Tet-on C or C1-2 transduced MDA-MB-231 cells were treated with 0.2 or 2 μg/mL doxycycline for 72 h. Cell viability was measured by Calcein AM. […] (C) Tet-on C1-2 transduced MCF10A cells were treated with 2 μg/mL doxycycline. Cell viability was measured at various time points by Calcein AM.

cancer cells = test: CD95 protein overexpression in cancer cells, viability in absence of ELANE (calcein-AM); assay type: cell-based, human; conditions: for cancer cell death/toxicity on expression in the absence of ELANE: transient overexpression
Method: FIGS. 1A-1K. ELANE cleaves CD95 to selectively kill cancer cells. (A): Heatmap summary of ELANE's effects on survival, stress, and apoptosis pathways in cancer cells and healthy cells. (B-C): Cancer cells were treated with ELANE (100 nM) and CD95 cleavage was assessed by western blotting using anti-N-terminal (B) or anti-C-terminal antibodies (C). *, lower molecular weight CD95 fragment. (D): Cancer cells or non-cancer cells were transduced to overexpress CD95 proteins, and effects on ELANE-mediated apoptosis were quantified by ANXAS at 30 min. n=2/group. See FIG. 1I for transduction and CD95 over-expression. (E): Cleavage of recombinant human CD95 N-terminal (aa 1-173) or C-terminal (aa 212-335) proteins by ELANE was assessed by SDS-PAGE and Coomassie blue staining. (F): Bands from (E) were digested with trypsin and analyzed by mass spectrometry to identify putative ELANE cleavage sites (i.e., peptides with non-tryptic ends). Major non-tryptic peptides were quantified by ion chromatograms. (G): Schematic of ELANE cleavage sites in CD95. […] (H): Cleavage of recombinant peptides corresponding to aa 214-231 and aa 317-335 in CD95 by ELANE was monitored by mass spectrometry. (I): Cancer cells or non-cancer cells were treated with fluorescein-labeled ELANE for 10 min and uptake was visualized by immunofluorescence. (J): ELANE catalytic activity in cancer cell lysates following exposure to ELANE for 30 mins in the presence and absence of Dynasore (60 μM endocytosis inhibitor). Effect of Dynasore on cancer cell killing capability of ELANE (measured by calcein-AM). n=6/group. (K): Cancer cells or non-cancer cells were transduced to overexpress various CD95 proteins, and cell viability in the absence of ELANE was determined by calcein-AM. n=10/group. *, p<0.05 Student's t-test.
In vitro cell viability assays. […] Luminescence was measured using a Victor X3 luminometer (PerkinElmer).
CD95 overexpression studies. Polycistronic adenoviral vectors were prepared to express the human and mouse CD95 sequences followed by the Encephalomyocarditis virus (EMCV) internal ribosome entry site and dTomato sequence under the control of the cytomegalovirus (CMV) promoter (VectorBuilder). Human and murine cancer cells or normal or non-cancer cells were transduced to over-express full-length CD95, N-terminal CD95 (human: aa 1-209; mouse: aa 1-204), C-terminal CD95 (human: aa 212-335; mouse: aa 204-327), or C-terminal CD95 that mimicked ELANE cleavage at site 1 (human: aa 221-335), site 2 (human: aa 212-331), or both sites (aa 221-331). Cancer cells or normal or non-cancer cells were transduced with adenoviruses at an MOI of 50-250 depending on cell type, and expression of dTomato and CD95 (human: 558814; mouse, mouse: 565130, BD Biosciences) were confirmed by flow cytometry. A vector encoding GFP (Vector Builders) was used as a control.

MDA-MB-231 cells = test: Doxycycline-inducible Tet-on expression of C or C1-2 in MDA-MB-231 cells; assay type: cell-based, human
Method: as §1, §2
FIG. 6 In vitro testing MDA-MB-231 cell death post C1-2 induction. (A) Various single colony of Tet-on C1-2 transduced MDA-MB-231 cells were treated with 2 μg/mL doxycycline (2 μg/mL) for 72 h. Cell viability was measured by Calcein AM. Different colonies have different susceptibility of death post C1-2 induction. (B) C1-2 expression of various single colony of Tet-on C1-2 transduced MDA-MB-231 cells post doxycycline treatment were measured by western blot (C), and the level at 24 h was correlated with % death (normalized by full length). […] (C) Immunoblot of C1-2 and full length (FL) CD95 expression for various colony.

B1: C1-2: hCD95 C-terminal peptide aa 221-331 mimicking ELANE cleavage at both sites; death domain containing fragment (protein)
chain: AINLSDVDLSKYITTIAGVMTLSQVKGFVRKNGVNEAKIDEIKNDNVQDTAEQKVQLLRNWHQLHGKKEAYDTLIKDLKKANLCTLAEKIQTIILKDITSDSENSNFRNEI
MDA-MB-231 tumors; doxycycline IP or through the food
  tumor growth after doxycycline induction: induced MDA-MB-231 tumor regression; also recorded: lessened tumor growth
MDA-MB-231 tumors; flow cytometry
  CD45+ immune cells in tumors: increased the number of CD45^+ immune cells in tumors
MCF10A cells
  cell death/apoptosis on doxycycline-induced expression: failed to induce apoptosis; also recorded: did not cause cell death
Cancer cells; MDA-MB-231 cells
  killing mechanism induced by expression: induced the same killing mechanism as treating these cells with ELANE
Cancer cells
  cancer cell death/toxicity on expression in the absence of ELANE: toxic
Cancer cells; listed as aa. 221-331 of SEQ ID NO:1
  cancer cell death/toxicity on expression in the absence of ELANE: induced cancer cell death in the absence of ELANE
MDA-MB-231 cells; FIG. 5A-5C
  selective killing of cancer cells by expression: can selectively kill cancer cells
MDA-MB-231 cells; Tet-on MDA-MB-231, doxycycline 0.2 or 2 μg/mL, 72 h, Calcein AM
  cell death/apoptosis on doxycycline-induced expression: induction of cell death in MDA-MB-231 cells; also recorded: underwent apoptosis; also recorded: caused MDA-MB-231 cell death
MDA-MB-231 cells; different colonies of MDA-MB-231 cells
  correlation of expression level with extent of apoptosis/death: significantly and positively correlated; also recorded: correlates with MDA-MB-231 cell death
